The values that follow come from paper PMC11931385, “Structural and functional analysis of cancer-associated missense variants in the retinoblastoma protein pocket domain” (The Journal of Biological Chemistry, 2025).

No end group written: not given here. TMR = tetramethyl rhodamine dye

One test concerns the target T1, Rb^P I679F (human, UniProt P06400 380-788, I679F).
T1 construct: also called variant 57
T1 sequence (looked up): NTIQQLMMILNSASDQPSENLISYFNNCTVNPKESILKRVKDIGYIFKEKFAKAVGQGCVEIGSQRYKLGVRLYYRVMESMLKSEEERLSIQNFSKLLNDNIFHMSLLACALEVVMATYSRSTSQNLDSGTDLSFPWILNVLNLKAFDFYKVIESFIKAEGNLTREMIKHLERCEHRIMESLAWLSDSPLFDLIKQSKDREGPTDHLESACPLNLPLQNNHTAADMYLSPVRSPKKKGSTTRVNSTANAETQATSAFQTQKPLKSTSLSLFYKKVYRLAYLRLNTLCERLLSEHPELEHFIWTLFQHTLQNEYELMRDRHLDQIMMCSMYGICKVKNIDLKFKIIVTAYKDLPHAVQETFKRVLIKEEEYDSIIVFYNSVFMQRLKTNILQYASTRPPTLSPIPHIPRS
Put plainly: fluorescence polarisation; 37 °C, after the 25 °C reading ramped over 7 min to 37 °C and 2 min incubation; unlabeled Rb^P against 1.5 nM TMR-E2F1^TD or 7.5 nM TMR-E7^LxCxE; 25 mM Tris pH 8.0, 200 mM NaCl, 1 mM DTT, 0.1% Tween-20; apparent Kd. The note with it: both partners purified. (Fluorescence polarisation rises when a labelled molecule tumbles more slowly, as on binding a larger partner.)

In a further test the target is T2, Rb^P K530I (human, UniProt P06400 380-788, K530I).
T2 construct: also called variant 21
T2 sequence (looked up): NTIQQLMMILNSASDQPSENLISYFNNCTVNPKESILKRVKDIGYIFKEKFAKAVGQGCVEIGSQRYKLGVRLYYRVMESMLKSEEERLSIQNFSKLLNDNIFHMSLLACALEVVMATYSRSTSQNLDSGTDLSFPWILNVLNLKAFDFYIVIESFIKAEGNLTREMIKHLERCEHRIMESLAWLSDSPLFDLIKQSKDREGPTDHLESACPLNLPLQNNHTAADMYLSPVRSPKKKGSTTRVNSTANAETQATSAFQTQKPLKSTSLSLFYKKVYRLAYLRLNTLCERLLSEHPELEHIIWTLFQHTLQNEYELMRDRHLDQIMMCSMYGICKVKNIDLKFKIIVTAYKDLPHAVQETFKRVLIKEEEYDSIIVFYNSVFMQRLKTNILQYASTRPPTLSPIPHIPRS
The test is described as above. The note with it: both partners purified.

B1: TMR-E2F1^TD, peptide of the E2F1 transactivation domain (peptide)
peptide: {TMR}-GEGIRDLFDCDFGDLTPLD
notes: also called E2F^TD; source: synthetic peptide, bought: GenScript
In the case of B1, the Kd with Rb^P I679F came out at 33 nM; with Rb^P K530I, 1680 nM.

B2: TMR-E7^LxCxE, LxCxE peptide of the E7 oncoprotein from HPV (peptide)
peptide: DLYCYEQLN
modifications: also: TMR label, position not given here
notes: source: synthetic peptide, bought: GenScript
As for B2, the Kd with Rb^P I679F and with Rb^P K530I was 20 nM each time.
